Experiment [1] concerns the target anti-hIgG (IgG2a). The experiment can be described thus: SPR; Autolab ESPRIT, room temperature, PBS pH 7.4; anti-hIgG adsorbed on the Cal-4 derivative 2 (carboxylic acid) SAM on gold, blocked with 0.1 mg/mL BSA, then 100 μL of 10 μg/mL protein G. On the technique in general: SPR reads the build-up and loss of mass on a sensor chip optically.
Experiment [2] concerns the target anti-hIgG (IgG2a). Description: SPR; Autolab ESPRIT, room temperature, PBS pH 7.4; anti-hIgG adsorbed on the Cal-4 derivative 1 (ethylester) SAM on gold, blocked with 0.1 mg/mL BSA, then 100 μL of 10 μg/mL protein G.

For “Protein G (from UniProt P06654 34-417) (natural protein)”, the SPR angle shift in experiment [1] worked out at 94 m°; in experiment [2], 32.6 m°.

(Values after paper PMC4013577.)
